Source: publication PMC7076203

Biological target: WT APP (amyloid precursor protein) stably expressed in H4-APPwt cells (human) (UniProt P05067)
Sequence (P05067 18-770): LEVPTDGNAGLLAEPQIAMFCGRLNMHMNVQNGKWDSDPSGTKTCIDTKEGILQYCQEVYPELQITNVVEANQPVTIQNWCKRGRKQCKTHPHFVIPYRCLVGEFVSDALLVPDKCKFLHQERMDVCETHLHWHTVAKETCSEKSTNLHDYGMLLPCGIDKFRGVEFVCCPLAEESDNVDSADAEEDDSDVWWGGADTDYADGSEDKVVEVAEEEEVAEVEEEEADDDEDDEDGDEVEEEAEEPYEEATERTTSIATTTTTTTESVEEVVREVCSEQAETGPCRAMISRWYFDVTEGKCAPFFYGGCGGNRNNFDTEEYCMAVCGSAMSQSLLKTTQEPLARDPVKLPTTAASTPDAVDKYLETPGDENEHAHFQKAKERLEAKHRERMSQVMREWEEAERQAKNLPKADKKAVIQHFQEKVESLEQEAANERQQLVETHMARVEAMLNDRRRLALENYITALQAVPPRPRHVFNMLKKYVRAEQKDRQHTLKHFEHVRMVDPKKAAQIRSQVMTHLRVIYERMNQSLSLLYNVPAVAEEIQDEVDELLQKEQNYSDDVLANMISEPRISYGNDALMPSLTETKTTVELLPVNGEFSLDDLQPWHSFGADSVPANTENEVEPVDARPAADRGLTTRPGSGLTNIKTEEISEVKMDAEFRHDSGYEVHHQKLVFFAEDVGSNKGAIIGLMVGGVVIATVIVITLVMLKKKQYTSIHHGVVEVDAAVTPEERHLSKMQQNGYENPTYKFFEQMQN

GAL3BP (preparation not stated), sequence (Q08380 19-585): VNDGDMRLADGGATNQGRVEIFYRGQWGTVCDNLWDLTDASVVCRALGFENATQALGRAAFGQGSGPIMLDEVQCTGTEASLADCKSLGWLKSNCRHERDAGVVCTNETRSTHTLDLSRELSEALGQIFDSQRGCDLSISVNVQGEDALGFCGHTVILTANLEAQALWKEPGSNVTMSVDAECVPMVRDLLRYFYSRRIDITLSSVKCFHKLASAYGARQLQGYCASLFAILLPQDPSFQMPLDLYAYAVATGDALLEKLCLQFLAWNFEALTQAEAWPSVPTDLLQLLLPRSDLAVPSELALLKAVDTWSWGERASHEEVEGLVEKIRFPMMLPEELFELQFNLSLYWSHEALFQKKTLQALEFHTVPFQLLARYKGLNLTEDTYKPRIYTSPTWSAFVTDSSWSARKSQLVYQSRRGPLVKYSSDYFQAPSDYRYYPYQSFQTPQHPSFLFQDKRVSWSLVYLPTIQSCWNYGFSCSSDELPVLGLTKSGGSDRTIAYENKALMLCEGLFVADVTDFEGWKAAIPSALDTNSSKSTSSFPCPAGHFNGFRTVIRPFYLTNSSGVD

- suppression of Aβ40 and Aβ42 production in H4-APPwt cells by GAL3BP: 30%
Substance: GAL3BP (preparation not stated) (from UniProt Q08380 19-585) (natural protein)
